From patent US7125658B2, “Small protein that interacts with a ribonucleotide reductase subunit and uses thereof” (The Trustees of Columbia University in the City of New York, priority 1998, dated 2006)
Ends that are not written are not given here.

Assays:
Experiment in all cases: cell-based or functional assay
[1] = molecular target: T1, Recombinant yeast Rnr1 protein (large subunit of ribonucleotide reductase) (yeast (Saccharomyces cerevisiae), UniProt P21524 1-888)
T1 sequence (looked up): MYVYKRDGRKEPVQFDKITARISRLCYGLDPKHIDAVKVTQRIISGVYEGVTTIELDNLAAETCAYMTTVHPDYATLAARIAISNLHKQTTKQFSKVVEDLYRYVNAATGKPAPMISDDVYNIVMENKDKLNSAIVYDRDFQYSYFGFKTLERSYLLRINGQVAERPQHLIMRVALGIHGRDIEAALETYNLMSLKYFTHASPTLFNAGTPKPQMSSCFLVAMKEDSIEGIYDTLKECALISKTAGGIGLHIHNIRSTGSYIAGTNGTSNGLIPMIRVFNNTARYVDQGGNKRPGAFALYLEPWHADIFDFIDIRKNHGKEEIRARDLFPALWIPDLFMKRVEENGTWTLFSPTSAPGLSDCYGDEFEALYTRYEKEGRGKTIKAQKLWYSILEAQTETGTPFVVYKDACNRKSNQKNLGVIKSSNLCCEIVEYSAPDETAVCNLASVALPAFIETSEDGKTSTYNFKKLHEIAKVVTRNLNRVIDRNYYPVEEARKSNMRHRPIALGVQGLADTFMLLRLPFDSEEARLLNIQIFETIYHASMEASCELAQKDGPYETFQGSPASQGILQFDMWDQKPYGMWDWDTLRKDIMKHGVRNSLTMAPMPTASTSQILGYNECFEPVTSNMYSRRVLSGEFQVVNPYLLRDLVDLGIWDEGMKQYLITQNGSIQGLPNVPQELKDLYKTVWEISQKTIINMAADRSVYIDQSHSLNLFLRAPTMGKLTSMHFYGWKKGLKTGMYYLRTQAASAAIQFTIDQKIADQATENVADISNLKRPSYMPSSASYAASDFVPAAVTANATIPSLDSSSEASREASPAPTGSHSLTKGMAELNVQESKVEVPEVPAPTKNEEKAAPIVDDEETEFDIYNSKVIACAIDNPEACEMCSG

[2] = molecular target: T2, GAD-Rnr1 two-hybrid fusion (plasmid pWJ745) (yeast (Saccharomyces cerevisiae), UniProt P21524 1-888)
T2 sequence (looked up): T1 sequence (looked up)

[3] = molecular target: T3, GAD-Sml1 two-hybrid fusion (plasmid pWJ684, pACTII) (Saccharomyces cerevisiae (yeast), UniProt Q04964 1-104)
T3 sequence: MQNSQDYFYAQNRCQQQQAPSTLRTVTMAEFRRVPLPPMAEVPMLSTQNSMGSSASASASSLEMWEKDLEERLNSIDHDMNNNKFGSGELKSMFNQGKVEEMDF

[4] = molecular target: T4, GAD (Gal4 activation domain alone, empty vector control) (UniProt P04386 768-881)
T4 sequence (looked up): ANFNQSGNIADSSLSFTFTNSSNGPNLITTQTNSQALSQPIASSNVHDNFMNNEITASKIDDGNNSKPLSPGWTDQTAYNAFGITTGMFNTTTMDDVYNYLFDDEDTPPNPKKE

B1: N-acetylated nonapeptide corresponding to the last 9 amino acids of Sml1p (peptide)
peptide: Ac-QGKVEEMDF
[1]
  IC50, in vitro yeast RNR assay: ~300 µM

B2: N-acetylated nonapeptide corresponding to the last 9 amino acids of Rnr2p (peptide)
peptide: Ac-GAFTFNEDF
[1]
  IC50, in vitro yeast RNR assay: 44 µM

B3: N-acetylated nonapeptide corresponding to the last 9 amino acids of Rnr4p (peptide)
peptide: Ac-KEINFDDDF
[1]
  IC50, in vitro yeast RNR assay: 30 µM

B4: GBD-Rnr1 two-hybrid fusion (plasmid pWJ731) (other, UniProt P04386 1-147, looked up)
chain: MKLLSSIEQACDICRLKKLKCSKEKPKCAKCLKNNWECRYSPKTKRSPLTRAHLTEVESRLERLEQLFLLIFPREDLDMILKMDSLQDIKALLTGLFVQDNVNKDAVTDRLASVETDMPLTLRQHRISATSSSEESSNKGQRQLTVSMYVYKRDGRKEPVQFDKITARISRLCYGLDPKHIDAVKVTQRIISGVYEGVTTIELDNLAAETCAYMTTVHPDYATLAARIAISNLHKQTTKQFSKVVEDLYRYVNAATGKPAPMISDDVYNIVMENKDKLNSAIVYDRDFQYSYFGFKTLERSYLLRINGQVAERPQHLIMRVALGIHGRDIEAALETYNLMSLKYFTHASPTLFNAGTPKPQMSSCFLVAMKEDSIEGIYDTLKECALISKTAGGIGLHIHNIRSTGSYIAGTNGTSNGLIPMIRVFNNTARYVDQGGNKRPGAFALYLEPWHADIFDFIDIRKNHGKEEIRARDLFPALWIPDLFMKRVEENGTWTLFSPTSAPGLSDCYGDEFEALYTRYEKEGRGKTIKAQKLWYSILEAQTETGTPFVVYKDACNRKSNQKNLGVIKSSNLCCEIVEYSAPDETAVCNLASVALPAFIETSEDGKTSTYNFKKLHEIAKVVTRNLNRVIDRNYYPVEEARKSNMRHRPIALGVQGLADTFMLLRLPFDSEEARLLNIQIFETIYHASMEASCELAQKDGPYETFQGSPASQGILQFDMWDQKPYGMWDWDTLRKDIMKHGVRNSLTMAPMPTASTSQILGYNECFEPVTSNMYSRRVLSGEFQVVNPYLLRDLVDLGIWDEGMKQYLITQNGSIQGLPNVPQELKDLYKTVWEISQKTIINMAADRSVYIDQSHSLNLFLRAPTMGKLTSMHFYGWKKGLKTGMYYLRTQAASAAIQFTIDQKIADQATENVADISNLKRPSYMPSSASYAASDFVPAAVTANATIPSLDSSSEASREASPAPTGSHSLTKGMAELNVQESKVEVPEVPAPTKNEEKAAPIVDDEETEFDIYNSKVIACAIDNPEACEMCSG
[2]
  two-hybrid LacZ activity: 2.9 Miller Units
[3]
  two-hybrid LacZ activity: 85 Miller Units
[4]
  two-hybrid LacZ activity: 0.8 Miller Units
